In article PMC6053506:

Experiments:
[1] = molecular target: AQP4-IgG (rAb-53) with the Fc mutation K322A (human); experiment: BLI; Octet K2, 30°C; antibody (6 µg/ml) loaded on anti-human Fab-CH1 biosensors; mouse FcRn-b2m in solution; PBS pH 7.2 for dilution, association and dissociation
[2] = molecular target: AQP4-IgG (rAb-53) with the Fc mutation N297D (human); experiment: as above
[3] = molecular target: AQP4-IgG (rAb-53) with the Fc mutation P331G (human); experiment: as above
[4] = molecular target: AQP4-IgG (rAb-53) with the Fc mutation D270A (human); experiment: BLI; Octet K2, 30°C; antibody (6 µg/ml) loaded on anti-human Fab-CH1 biosensors; mouse FcRn-b2m in solution, 2,000 to 0 nM; 100 mM sodium phosphate, 150 mM NaCl, 0.05% Tween-20, pH 6; 60 s association, 60 s dissociation
Chain of AQP4-IgG (rAb-53) with the Fc mutation D270A (human) (heavy, as listed by the source, chain 1 of 2): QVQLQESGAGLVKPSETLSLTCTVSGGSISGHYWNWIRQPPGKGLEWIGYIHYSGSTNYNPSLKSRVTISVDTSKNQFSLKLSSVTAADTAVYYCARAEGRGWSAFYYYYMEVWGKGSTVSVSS
Chain of AQP4-IgG (rAb-53) with the Fc mutation D270A (human) (light, as listed by the source, chain 2 of 2): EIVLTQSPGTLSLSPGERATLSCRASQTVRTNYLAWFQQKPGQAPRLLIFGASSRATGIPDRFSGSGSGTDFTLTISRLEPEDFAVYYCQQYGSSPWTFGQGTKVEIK

[5] = molecular target: AQP4-IgG (rAb-53) with the Fc mutation K322A (human); experiment: as above
[6] = molecular target: AQP4-IgG (rAb-53) with the Fc mutation N297D (human); experiment: as above
[7] = molecular target: AQP4-IgG (rAb-53) with the Fc mutation P329A (human); experiment: as above
Chain of AQP4-IgG (rAb-53) with the Fc mutation P329A (human) (heavy, as listed by the source, chain 1 of 2): as the sequence (heavy, as listed by the source, chain 1 of 2) above
Chain of AQP4-IgG (rAb-53) with the Fc mutation P329A (human) (light, as listed by the source, chain 2 of 2): as the sequence (light, as listed by the source, chain 2 of 2) above

[8] = molecular target: AQP4-IgG (rAb-53) with the Fc mutation P331G (human); experiment: as above
[9] = molecular target: human monoclonal AQP4-IgG (rAb-53), wild type (human); experiment: as above
Chain of human monoclonal AQP4-IgG (rAb-53), wild type (human) (heavy, as listed by the source, chain 1 of 2): as the sequence (heavy, as listed by the source, chain 1 of 2) above
Chain of human monoclonal AQP4-IgG (rAb-53), wild type (human) (light, as listed by the source, chain 2 of 2): as the sequence (light, as listed by the source, chain 2 of 2) above

[10] = molecular target: isotype control antibody directed against measles virus (2B4-IgG) (human); experiment: as above

Chain of AQP4-IgG (rAb-53) with the Fc mutation K322A (human) (heavy, as listed by the source, chain 1 of 2): as the sequence (heavy, as listed by the source, chain 1 of 2) above
Chain of AQP4-IgG (rAb-53) with the Fc mutation K322A (human) (light, as listed by the source, chain 2 of 2): as the sequence (light, as listed by the source, chain 2 of 2) above
Chain of AQP4-IgG (rAb-53) with the Fc mutation P331G (human) (heavy, as listed by the source, chain 1 of 2): as the sequence (heavy, as listed by the source, chain 1 of 2) above
Chain of AQP4-IgG (rAb-53) with the Fc mutation P331G (human) (light, as listed by the source, chain 2 of 2): as the sequence (light, as listed by the source, chain 2 of 2) above
Chain of AQP4-IgG (rAb-53) with the Fc mutation N297D (human) (heavy, as listed by the source, chain 1 of 2): as the sequence (heavy, as listed by the source, chain 1 of 2) above
Chain of AQP4-IgG (rAb-53) with the Fc mutation N297D (human) (light, as listed by the source, chain 2 of 2): as the sequence (light, as listed by the source, chain 2 of 2) above

Work on “mouse FcRn-Beta-2 microglobulin heterodimer protein (from UniProt Q61559 22-297; P01887 21-119) (complex)” yielded a Req [1] of 0.198, a Req [2] of 0.136 and a Req [3] of 0.151. For the same substance, the Req [4] was 0.43, the Req [5] was 0.987 and the Req [6] was 1. The Req [7] was 1.16, the Req [8] was 0.915 and the Req [9] was 0.851. It also gave a Req [10] of 0.76.
